Target: TβRII-IgG Fc fusion protein (human) (UniProt P37173)
Assay: capture assay on plate-immobilised TβRII-Fc, detection biotin anti-IL-2 / streptavidin-HRP, TMB 450 nm; Kd from the capture curve

Chain of masked TGF-β1 construct, IL-2 - IgG scaffold - TβRII(Δ25, D118A) mask - TGF-β1 (P01137 other isoform, or with tags, fused parts or gaps, stated change not applied): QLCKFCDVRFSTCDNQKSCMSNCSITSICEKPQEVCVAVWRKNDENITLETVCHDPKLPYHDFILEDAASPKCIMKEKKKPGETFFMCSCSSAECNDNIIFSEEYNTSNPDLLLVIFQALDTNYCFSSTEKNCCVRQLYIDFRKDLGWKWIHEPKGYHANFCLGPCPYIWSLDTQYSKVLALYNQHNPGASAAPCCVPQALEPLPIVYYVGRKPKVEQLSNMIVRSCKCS
Chain of masked TGF-β1 construct, IL-2 - IgG scaffold - TβRII(Δ25, D118A, S52L) mask - TGF-β1 (P01137 other isoform, or with tags, fused parts or gaps, stated change not applied): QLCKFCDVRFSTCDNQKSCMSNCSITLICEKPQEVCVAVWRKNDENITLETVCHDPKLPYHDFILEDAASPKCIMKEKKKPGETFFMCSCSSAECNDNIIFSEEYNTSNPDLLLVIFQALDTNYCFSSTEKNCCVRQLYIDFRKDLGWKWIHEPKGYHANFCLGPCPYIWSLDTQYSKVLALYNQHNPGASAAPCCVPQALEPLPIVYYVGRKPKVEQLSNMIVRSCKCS
Chain of masked TGF-β1 construct, IL-2 - IgG scaffold - TβRII(Δ25, D118A, D32N) mask - TGF-β1 (P01137 other isoform, or with tags, fused parts or gaps, stated change not applied): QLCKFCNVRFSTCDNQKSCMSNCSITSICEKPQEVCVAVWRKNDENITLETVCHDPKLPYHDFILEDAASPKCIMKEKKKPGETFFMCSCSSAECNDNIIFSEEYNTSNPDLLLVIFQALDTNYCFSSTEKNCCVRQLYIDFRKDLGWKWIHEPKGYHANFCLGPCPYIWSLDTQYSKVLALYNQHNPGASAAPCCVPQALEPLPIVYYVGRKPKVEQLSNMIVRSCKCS
Chain of masked TGF-β1 construct, IL-2 - IgG scaffold - TβRII(Δ25, D118A, E55A) mask - TGF-β1 (P01137 other isoform, or with tags, fused parts or gaps, stated change not applied): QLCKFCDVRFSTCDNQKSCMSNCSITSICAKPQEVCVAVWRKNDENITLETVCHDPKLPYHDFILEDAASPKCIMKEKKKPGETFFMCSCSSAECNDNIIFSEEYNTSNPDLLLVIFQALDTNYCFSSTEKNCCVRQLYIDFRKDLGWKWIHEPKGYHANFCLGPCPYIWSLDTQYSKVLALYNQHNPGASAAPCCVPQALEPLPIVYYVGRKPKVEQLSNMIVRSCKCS

Kd	Substance
1.51 µM	masked TGF-β1 construct, IL-2 - IgG scaffold - TβRII(Δ25, D118A) mask - TGF-β1 (from UniProt P01137 279-390) (Fc fusion)
5.9 µM	masked TGF-β1 construct, IL-2 - IgG scaffold - TβRII(Δ25, D118A, D32N) mask - TGF-β1 (from UniProt P01137 279-390) (Fc fusion)
2.99 µM	masked TGF-β1 construct, IL-2 - IgG scaffold - TβRII(Δ25, D118A, E55A) mask - TGF-β1 (from UniProt P01137 279-390) (Fc fusion)
154 µM	masked TGF-β1 construct, IL-2 - IgG scaffold - TβRII(Δ25, D118A, S52L) mask - TGF-β1 (from UniProt P01137 279-390) (Fc fusion)
